{"source": "paper PMC12003248", "about": "“ERCC6L2 mitigates replication stress and promotes centromere stability” (Cell Reports, 2023)", "molecules": {"B1": {"name": "701–1,098: C-terminal YFP-ERCC6L2 fragment (protein, UniProt Q5T890 701-1098, looked up, fragment)", "chain": "REGQVEAGIMTATTWLKEGPPAHKLEMPRQPDCQECRGTEQAAEPLAKEACDLCSDFSDEEPVGATGIKTAKNKAPDSSKASSSPGQLTLLQCGFSKLLETKCKAVEDSDGNTASDDESSDEQPTCLSTEAKDAGCEKNQDSLGTSKHQKLDNILNPKEKHIFYKSEKILEQNISSKSDEKKIKNTDKHCILQNVTESEDSDVICPTQYTTERFPDNSIRFKPPLEGSEDSETEHTVKTRNNDNSRNTDDKRNGIISKKLSPENTTLKSILKRKGTSDISDESDDIEISSKSRVRKRASSLRFKRIKETKKELHNSPKTMNKTNQVYAANEDHNSQFIDDYSSSDESLSVSHFSFSKQSHRPRTIRDRTSFSSKLPSHNKKNSTFIPRKPMKCSNEKV", "modifications": "YFP tag", "notes": "C-terminal YFP-ERCC6L2 fragment"}, "B2": {"name": "728–1,098: C-terminal YFP-ERCC6L2 fragment (protein, UniProt Q5T890 728-1098, looked up, fragment)", "chain": "PRQPDCQECRGTEQAAEPLAKEACDLCSDFSDEEPVGATGIKTAKNKAPDSSKASSSPGQLTLLQCGFSKLLETKCKAVEDSDGNTASDDESSDEQPTCLSTEAKDAGCEKNQDSLGTSKHQKLDNILNPKEKHIFYKSEKILEQNISSKSDEKKIKNTDKHCILQNVTESEDSDVICPTQYTTERFPDNSIRFKPPLEGSEDSETEHTVKTRNNDNSRNTDDKRNGIISKKLSPENTTLKSILKRKGTSDISDESDDIEISSKSRVRKRASSLRFKRIKETKKELHNSPKTMNKTNQVYAANEDHNSQFIDDYSSSDESLSVSHFSFSKQSHRPRTIRDRTSFSSKLPSHNKKNSTFIPRKPMKCSNEKV", "modifications": "YFP tag", "notes": "as for B1"}, "B3": {"name": "797–1,098: C-terminal YFP-ERCC6L2 fragment (protein, UniProt Q5T890 797-1098, looked up, fragment)", "chain": "KLLETKCKAVEDSDGNTASDDESSDEQPTCLSTEAKDAGCEKNQDSLGTSKHQKLDNILNPKEKHIFYKSEKILEQNISSKSDEKKIKNTDKHCILQNVTESEDSDVICPTQYTTERFPDNSIRFKPPLEGSEDSETEHTVKTRNNDNSRNTDDKRNGIISKKLSPENTTLKSILKRKGTSDISDESDDIEISSKSRVRKRASSLRFKRIKETKKELHNSPKTMNKTNQVYAANEDHNSQFIDDYSSSDESLSVSHFSFSKQSHRPRTIRDRTSFSSKLPSHNKKNSTFIPRKPMKCSNEKV", "modifications": "YFP tag", "notes": "as for B1"}, "B4": {"name": "820–1,098: C-terminal YFP-ERCC6L2 fragment (protein, UniProt Q5T890 820-1098, looked up, fragment)", "chain": "SDEQPTCLSTEAKDAGCEKNQDSLGTSKHQKLDNILNPKEKHIFYKSEKILEQNISSKSDEKKIKNTDKHCILQNVTESEDSDVICPTQYTTERFPDNSIRFKPPLEGSEDSETEHTVKTRNNDNSRNTDDKRNGIISKKLSPENTTLKSILKRKGTSDISDESDDIEISSKSRVRKRASSLRFKRIKETKKELHNSPKTMNKTNQVYAANEDHNSQFIDDYSSSDESLSVSHFSFSKQSHRPRTIRDRTSFSSKLPSHNKKNSTFIPRKPMKCSNEKV", "modifications": "YFP tag", "notes": "as for B1"}, "B5": {"name": "880–1,098: C-terminal YFP-ERCC6L2 fragment (protein, UniProt Q5T890 880-1098, looked up, fragment)", "chain": "EKKIKNTDKHCILQNVTESEDSDVICPTQYTTERFPDNSIRFKPPLEGSEDSETEHTVKTRNNDNSRNTDDKRNGIISKKLSPENTTLKSILKRKGTSDISDESDDIEISSKSRVRKRASSLRFKRIKETKKELHNSPKTMNKTNQVYAANEDHNSQFIDDYSSSDESLSVSHFSFSKQSHRPRTIRDRTSFSSKLPSHNKKNSTFIPRKPMKCSNEKV", "modifications": "YFP tag", "notes": "as for B1"}}}
{"tested_on": "U2OS cells", "experiment": "Nuclear patterns resembling replication foci of YFP-ERCC6L2 truncations", "assay_type": "cell-based, human", "details": "YFP-tagged fragments", "text": "Figure 4 ERCC6L2 contains an atypical PCNA-binding motif (A) ERCC6L2 colocalizes with PCNA at CENP-C-negative foci. U2OS cells transfected with YFP-ERCC6L2 were stained for CENP-C and PCNA after pre-extraction of soluble proteins. ERCC6L2-and PCNA-positive, but CENP-C negative foci (red arrows) are marked in zoomed images. (B) ERCC6L2 colocalizes with RPA at CENP-C-negative foci. U2OS cells transfected with YFP-ERCC6L2 were stained for CENP-C and RPA. ERCC6L2- and RPA-positive, but CENP-C-negative foci (red arrows) are marked in zoomed images. (C) Colocalization of the C-terminal ERCC6L2^701−1561 fragment with endogenous PCNA. (D) PCNA pull-down with biotinylated peptides. Biotinylated PIP-box and APIM motif peptides were bound to streptavidin beads and incubated with recombinant PCNA. Interactions were assayed by western blotting with PCNA antibody. Wild-type ZRANB3 PIP-box peptide (ZRANB3 PIP) was used as a positive control. Mutant ZRANB3 PIP-box peptide (Q519A, F525A, and F526A, ZRANB3 PIP^∗) served as a negative control. ERCC6L2 aPIP and ERCC6L2 aPIP^∗ denote atypical ERCC6L2 peptides (residues 790–811) containing the WT and the Q798A mutant sequences, respectively. (E) Expression patterns of the indicated C-terminal YFP-ERCC6L2 constructs. […] (F) PCNA pull-down with GST-tagged peptides. Wild-type and Q798A mutant versions of the GST-tagged ERCC6L2 fragments (residues 753–819) were immobilized on GST beads (shown on the left) and incubated with recombinant PCNA. Interactions were assessed by western blotting against PCNA (shown on the right). (G) Schematic representation of different ERCC6L2 fragments tested for formation of PCNA-like foci. A region at the N terminus of fragment 701–1,098 is zoomed below to show sequence alignment of different ERCC6L2 proteins. The conserved atypical PIP-box is marked in a green frame. Targeted mutation sites are indicated by red arrows. (H) Colocalization of YFP-ERCC6L2 wild type, ATPase dead K165 ERCC6L2, and aPIP^∗ mutant (Q798A, C804A, F806A) with CENP-A. N(cells) > 1,400. (I) Colocalization of YFP-ERCC6L2 wild type, ATPase dead K165 ERCC6L2, and aPIP^∗ mutant (Q798A, C804A, F806A) with CENP-B. N(cells) > 1,000. (J) Front and side views of the PCNA ring (white surface and ribbons) with the ERCC6L2 aPIP-box peptide (green sticks). (K) Overview of the hydrogen-bond interaction network between the ERCC6L2 aPIP-box peptide (green) and PCNA (white). Hydrogen bonds are shown as yellow dotted lines. (L) Hydrophobic pocket on PCNA surface (white) with conserved residues that form “hydrophobic plug” (Leu801, Cys804, and Phe806; shown as green sticks) in the ERCC6L2 aPIP-box peptide. (M) Magnified view of the boxed region in (I). (N) Magnified view of the hydrogen-bond interaction network between the ERCC6L2 aPIP-box peptide (green) and PCNA (white, labels in italics). Hydrogen bonds are shown as yellow dotted lines. Intramolecular hydrogen bonds between ERCC6L2 aPIP-box residues are also shown. (H) and (I) Box and whisker plots. […] (A), (B), (C), (E) Scale bar, 5 μm.\nU2OS cells (ATCC) were grown in 24 well plates. Where indicated, cells were transfected with the YFP constructs […] with siRNAs. […] Samples were analyzed by confocal microscopy using Olympus FV1200 or Zeiss 880 Airyscan microscopes, or using EVOS M7000 Imaging System."}
{"molecule": "B1", "nuclear pattern resembling replication foci": "show patterns reminiscent of replication foci"}
{"molecule": "B2", "nuclear pattern resembling replication foci": "show patterns reminiscent of replication foci"}
{"molecule": "B3", "nuclear pattern resembling replication foci": "show patterns reminiscent of replication foci"}
{"molecule": "B4", "nuclear pattern resembling replication foci": "do not"}
{"molecule": "B5", "nuclear pattern resembling replication foci": "do not"}
